From article doi:10.1101/2024.07.23.604771

Target: FLAG-2xStrep-PNO1 (UniProt Q9NRX1)
Test: co-IP

UniProt Q9NRX1, sequence (Q9NRX1 whole entry): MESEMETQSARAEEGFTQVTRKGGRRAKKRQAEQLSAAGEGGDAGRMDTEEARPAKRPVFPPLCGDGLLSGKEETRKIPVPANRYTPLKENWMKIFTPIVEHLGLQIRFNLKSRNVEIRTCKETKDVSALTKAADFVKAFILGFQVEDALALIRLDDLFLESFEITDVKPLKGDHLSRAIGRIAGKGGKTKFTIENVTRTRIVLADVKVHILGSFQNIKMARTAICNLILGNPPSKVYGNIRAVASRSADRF

fold increase of association, lytic against latent cells: 3 fold
Substance: EMG1 (from UniProt Q92979 1-244) (natural protein)
